From patent publication US7419667B2, “Drug for cancer therapy” (Morinaga Milk Industry Co. Ltd., priority 2004, dated 2008)

Tested on: human Burkitt lymphoma Raji cells
Test: Test Example 1: cytotoxic action of complement and antibody drug (rituximab) with sample added, PI method
Type: cell-based
Conditions: for Cytotoxic activity (%): 100 μl/well of 1000 μg/ml sample, 1 hour, PI
Procedure: Test Sample 1 was prepared with the lactoferrin hydrolysate mixture prepared in Preparation Example 1, of which concentration was adjusted to 1000 μg/ml in RPMI 1640 medium (Sigma, catalog number: R8758) containing 7.5% fetal bovine serum (Gibco, catalog number: 10099-141) and 1% penicillin-streptomycin (Gibco, catalog number: 15070-063) [henceforth this solution is referred to as “dilution solution”]. Furthermore, Control Sample 1 was prepared by diluting lactoferrin to a concentration of 1000 μg/ml with the dilution solution.
As target cells for measurement of cytotoxic action of complement and antibody drug, human Burkitt lymphoma Raji cells (ATCC CCL-86, obtained from American Type Culture Collection (10801 University Boulevard, Manassas, Va. 20110-2209, USA)) were used, and the cells were suspended at a density of 2×10^6 cells/ml by using the dilution solution to prepare a Raji cell suspension. As an antibody drug solution, rituximab (Zenyaku Kogyo, sold by Nippon Roche) that recognizes the CD20 antigen was used, and it was prepared at a concentration of 200 μg/ml using the dilution solution. As a complement solution, Human serum AB (Cosmobio, catalog number: 832000027) was used. These antibody drug solution and complement solution were also used for Test Examples 2 to 5 described below.
Viability determination of the cells was performed by the method using propidium iodide (PI, Dojindo, catalog number: P378) [Cytometry, Vol. 8, No. 4, pp. 421-426, 1987] or the method using Calcein-AM (Dojindo, catalog number: 341-07901) [Apoptosis, Vol. 3, No. 3, pp. 195-202, 1998].
The Raji cell suspension was added to each well of a 24-well culture plate (NUNC, catalog number: 143982) in a volume of 100 μl each (2×10^5 cells each). The 24 wells were divided into four groups, to wells (6 wells) of one group among them, 50 μl/well of the antibody drug solution and 250 μl/well of dilution solution were added as “Addition of antibody drug”. Further, to wells (6 wells) of another group, 100 μl of the complement solution and 200 μl of the dilution solution were added as “Addition of complement”. Furthermore, to wells (6 wells) of another group, 50 μl of the antibody drug solution, 100 μl of the complement solution and 150 μl of the dilution solution were added as “Addition of antibody drug+complement”. To wells (6 wells) of the remaining one group, 300 μl of the dilution solution was added as “No addition”.
For the aforementioned four groups, 100 μl/well of Test Sample 1 (4 groups×2 wells), Control Sample 1 (4 groups×2 wells) or the dilution solution (4 groups×2 wells) mentioned above was added as “Test Sample Group 1”, “Control Sample Group 1” and “Negative Sample Group 1”, respectively.
By using the 24-well plate prepared as described above, the cells were cultured under the conditions of 37° C. and 5% carbon dioxide (CO2) for 1 hour using an incubator (Napco, catalog number: 5300). Then, the cells of each sample group were collected, and the rate of dead cells in each was examined by the aforementioned method using PI. Cytotoxic activity was calculated based on a case where all the target cells were killed, which was taken as 100%.

B1: Control Sample Group 1: Undecomposed commercially available bovine lactoferrin (Morinaga Milk Industry Co., Ltd.) used as control (protein, listed as Bos taurus)
chain: MKLFVPALLSLGALGLCLAAPRKNVRWCTISQPEWFKCRRWQWRMKKLGAPSITCVRRAFALECIRAIAEKKADAVTLDGGMVFEAGRDPYKLRPVAAEIYGTKESPQTHYYAVAVVKKGSNFQLDQLQGRKSCHTGLGRSAGWIIPMGILRPYLSWTESLEPLQGAVAKFFSASCVPCIDRQAYPNLCQLCKGEGENQCACSSREPYFGYSGAFKCLQDGAGDVAFVKETTVFENLPEKADRDQYELLCLNNSRAPVDAFKECHLAQVPSHAVVARSVDGKEDLIWKLLSKAQEKFGKNKSRSFQLFGSPPGQRDLLFKDSALGFLRIPSKVDSALYLGSRYLTTLKNLRETAEEVKARYTRVVWCAVGPEEQKKCQQWSQQSGQNVTCATASTTDDCIVLVLKGEADALNLDGGYIYTAGKCGLVPVLAENRKSSKHSSLDCVLRPTEGYLAVAVVKKANEGLTWNSLKDKKSCHTAVDRTAGWNIPMGLIVNQTGSCAFDEFFSQSCAPGADPKSRLCALCAGDDQGLDKCVPNSKEKYYGYTGAFRCLAEDVGDVAFVKNDTVWENTNGESTADWAKNLNREDFRLLCLDGTRKPVTEAQSCHLAVAPNHAVVSRSDRAAHVKQVLLHQQALFGKNGKNCPDKFCLFKSETKNLLFNDNTECLAKLGGRPTYEEYLGTEYVTAIANLKKCSTSPLLEACAFLTR
modifications: sig_peptide (1)...(19) Lactoferrin
- change of cytotoxic activity compared with the negative sample group (Addition of antibody drug + complement): did not increase
- Cytotoxic activity (%) (Addition of antibody drug + complement (rituximab, human serum AB)): 24.3%
- Cytotoxic activity (%) (Addition of antibody drug only): 1.0%
- Cytotoxic activity (%) (Addition of complement only): 1.2%
- Cytotoxic activity (%) (No addition (no antibody drug, no complement)): 1.0%
